B1: native hexamer form of MRJP1: unmodified major royal jelly protein 1 (SEQ ID NO: 1), about 300 kDa hexamer (protein, listed as Apis mellifera)
chain: MTRLFMLVCLGIVCQGTTGNILRGESLNKSLPILHEWKFFDYDFGSDERRQDAILSGEYDYKNNYPSDIDQWHDKIFVTMLRYNGVPSSLNVISKKVGDGGPLLQPYPDWSFAKYDDCSGIVSASKLAIDKCDRLWVLDSGLVNNTQPMCSPKLLTFDLTTSQLLKQVEIPHDVAVNATTGKGRLSSLAVQSLDCNTNSDTMVYIADEKGEGLIVYHNSDDSFHRLTSNTFDYDPKFTKMTIDGESYTAQDGISGMALSPMTNNLYYSPVASTSLYYVNTEQFRTSDYQQNDIHYEGVQNILDTQSSAKVVSKSGVLFFGLVGDSALGCWNEHRTLERHNIRTVAQSDETLQMIASMKIKEALPHVPIFDRYINREYILVLSNKMQKMVNNDFNFDDVNFRIMNANVNELILNTRCENPDNDRTPFKISIHL
modifications: native hexamer
B2: monomeric form of royalactin: unmodified monomeric MRJP1 (royalactin) (protein)
chain: NILRGESLNKSLPILHEWKFFDYDFGSDERRQDAILSGEYDYKNNYPSDIDQWHDKIFVTMLRYNGVPSSLNVISKKVGDGGPLLQPYPDWSFAKYDDCSGIVSASKLAIDKCDRLWVLDSGLVNNTQPMCSPKLLTFDLTTSQLLKQVEIPHDVAVNATTGKGRLSSLAVQSLDCNTNSDTMVYIADEKGEGLIVYHNSDDSFHRLTSNTFDYDPKFTKMTIDGESYTAQDGISGMALSPMTNNLYYSPVASTSLYYVNTEQFRTSDYQQNDIHYEGVQNILDTQSSAKVVSKSGVLFFGLVGDSALGCWNEHRTLERHNIRTVAQSDETLQMIASMKIKEALPHVPIFDRYINREYILVLSNKMQKMVNNDFNFDDVNFRIMNANVNELILNTRCENPDNDRTPFKISIHL
B3: MGO-modified MRJP3: major royal jelly protein 3 chemically modified by methylglyoxal (protein, UniProt Q17060 21-544, looked up)
Major royal jelly protein 3: AAVNHQRKSANNLAHSMKVIYEWKHIDFDFGSDERRDAAIKSGEFDHTKNYPFDVDRWRDKTFVTIERNNGVPSSLNVVTNKKGKGGPLLRPYPDWSFAKYEDCSGIVSAFKIAVDKFDRLWVLDSGLVNNNQPMCSPKLLTFDLKTSKLVKQVEIPHNIAVNATTGMGELVSLAVQAIDRTNTMVYIADEKGEGLIMYQNSDDSFHRLTSNTFDYDPRYTKLTVAGESFTVKNGIYGIALSPVTNNLYYSPLLSHGLYYVDTEQFSNPQYEENNVQYEGSQDILNTQSFGKVVSKNGVLFLGLVGNSGIACVNEHQVLQRESFDVVAQNEETLQMIVSMKIMENLPQSGRINDPEGNEYMLALSNRMQKIINNDFNFNDVNFRILGANVDDLMRNTRCGRYHNQNAGNQNADNQNADNQNANNQNADNQNANKQNGNRQNDNRQNDNKQNGNRQNDNKQNGNRQNDNKQNGNRQNGNKQNDNKQNGNRQNDNKRNGNRQNDNQNNQNDNNRNDNQVHHSSKLH
modifications: methylglyoxal-modified
notes: major royal jelly protein 3 chemically modified by methylglyoxal

What was measured:
Cathepsin B = Cathepsin B (Bos taurus, UniProt P07688); assay: Cathepsin B digestion of MGO-modified MRJP, native PAGE; type: biochemical; settings: 37° C.
Procedure: Cathepsin B working reagent solution was prepared (1:50) from Cathepsin B stock solution in the buffer system containing 100 mM sodium acetate, 2 mM EDTA and 2.5 mM 2-mercaptoethanol, pH 5.0.
Cathepsin digestion was performed on selected samples of SEC fractions. Typically, 10 μl of Cathepsin B working solution was mixed with 20 μl of protein sample and digested at 37° C. for overnight. After hydrolysis, the digests were prepared for native PAGE analysis.
Samples used in the Cathepsin B digestion were: 1) Crude MRJP protein; 2) Desalted fraction (first big peak) of MGO-modified MRJP at pH 4.0 for 9 days sample; 3) Desalted fraction (first big peak) of MGO-modified MRJP in PBS (pH 7.5) for 9 days sample; 4) SEC fractions of pH 5.0 fractions; 5) SEC fractions of reaction 221.
For hydrolysis, 10 μL of a 1 mg/mL solution (10 μg) of Cathepsin B was used. Thus, a very high level of enzyme activity was employed for these experiments. Moreover, the reaction was performed over two days at 37° C. Under these conditions, we expected to see complete or near complete hydrolysis of the MRJP proteins.

[1] = Anti-inflammatory activity of MGO-modified proteins (results not shown)
Excerpt: As used herein, “anti-inflammatory capacity” is defined as the capacity to clinically reduce inflammation or the symptoms of inflammation in cellular tissue. Anti-inflammatory capacity may be determined using the phagocytosis inhibition assay (PIA) described in PCT/NZ PCT/NZ/2011/000271 or the DCFDA assay also described in PCT/NZ/2011/000271 or the anti-inflammatory capacity may also be determined by the inhibition of Cathepsin B as described in detail below.

Molecule | Hydrolysis by Cathepsin B (Cathepsin B) | Anti-inflammatory activity [1]
B1 | readily degraded | –
B2 | readily degraded | –
B3 | – | enhanced anti-inflammatory properties

Reference: patent US9580464B2, “Anti-inflammatory proteins and peptides and methods of preparation and use thereof” (ManukaMed Limited, priority 2012, dated 2017)
